Assay results taken from US20180038859A1.

Experiments:
Test in all cases: cell-based or functional assay
CXCR1 (human) = CXCR1 (human) (UniProt P25024)
hCCR2b (human) = hCCR2b (human) (UniProt P41597)
hCCR2b (human), P41597 = target: hCCR2b (human), P41597
hCCR2b (human), P41597, sequence (P41597 whole entry): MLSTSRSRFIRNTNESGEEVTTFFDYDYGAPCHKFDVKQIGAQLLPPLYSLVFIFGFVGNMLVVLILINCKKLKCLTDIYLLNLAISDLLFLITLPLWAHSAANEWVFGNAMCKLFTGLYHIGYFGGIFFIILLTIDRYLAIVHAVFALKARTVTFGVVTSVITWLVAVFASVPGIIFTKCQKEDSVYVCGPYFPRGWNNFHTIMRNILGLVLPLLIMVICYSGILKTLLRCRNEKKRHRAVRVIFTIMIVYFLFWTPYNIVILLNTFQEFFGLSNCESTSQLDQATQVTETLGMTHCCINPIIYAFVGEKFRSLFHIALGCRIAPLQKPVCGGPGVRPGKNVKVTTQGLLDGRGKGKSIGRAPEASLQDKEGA

hCCR2b (human), sequence (P41597 whole entry): as above
CXCR1 (human), sequence (P25024 whole entry): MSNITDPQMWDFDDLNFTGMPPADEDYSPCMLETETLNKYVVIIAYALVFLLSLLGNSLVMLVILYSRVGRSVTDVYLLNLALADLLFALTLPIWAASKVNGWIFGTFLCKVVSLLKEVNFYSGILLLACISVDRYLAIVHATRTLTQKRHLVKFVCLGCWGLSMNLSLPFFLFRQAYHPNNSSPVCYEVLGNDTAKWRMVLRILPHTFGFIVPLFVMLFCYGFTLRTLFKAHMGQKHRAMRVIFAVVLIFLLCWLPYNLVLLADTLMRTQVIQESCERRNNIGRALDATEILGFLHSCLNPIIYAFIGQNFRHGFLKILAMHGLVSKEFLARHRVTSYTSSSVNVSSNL

recombinant native IL-8 (from UniProt P10145 28-99) (ligand)
EC50, agonist activity in an Aequorin assay (CXCR1 (human)): 5.2 nM

recombinant native MCP-1 (from UniProt P13500 24-99) (ligand)
EC50, agonist activity in an Aequorin assay (hCCR2b (human)): 3.1 nM

recombinant native MCP-2 (from UniProt P80075 24-99) (ligand)
EC50, activity (partial agonist) in an Aequorin assay (hCCR2b (human)): 23.5 nM

B1: biotinMCP-2 (CCL8), P80075 24-99 (ligand)
chain: QPDSVSIPITCCFNVINRKIPIQRLESYTRITNIQCPKEAVIFKTKRGKEVCADPKERWVRDSMKHLDQIFQNLKP
modifications: here or on the partner: pyroGlu at position 1 (replaces Gln1); Lys75 epsilon-amino PEG-Biotin; C-terminal amide
EC50, activity (partial agonist) in an Aequorin assay (hCCR2b (human), P41597): 50.9 nM
